Experimental data reported in publication PMC10318062 (Nature Communications, 2023).
Where a chain is given by its changes, count along the chain named.

B1: BD-236 (antibody, V domains shown)
VH: EVQLVESGGGLIQPGGSLRLSCAASGITVSSNYMSWVRQAPGKGLEWVSVIYSGGSTDYADSVKGRFTISRDKSKNTLYLQMNSLRAEDTAVYYCARDLGEAGGMDVWGQGTTVTVSS
VL: AIQLTQSPSSLSASVGDRVTITCRASQGISSYLAWYQQKPGKAPKLLIYAASTLQSGVPSRFSGSGSGTDFTLTISSLQPEDFATYYCQQLNSYPPAFGGGTKVEIK
B2: BD-368-2 (antibody, V domains shown)
VH: EVQLLESGGGVVQPGGSLRLSCAASGFAFTTYAMNWVRQAPGRGLEWVSAISDGGGSAYYADSVKGRFTISRDNSKNTLYLQMNSLRAEDTAVYYCAKTRGRGLYDYVWGSKDYWGQGTLVTVSS
VL: B1 VL
B3: BD-604 (antibody, V domains shown)
VH: EVQLVESGGGLIQPGGSLRLSCAASGIIVSSNYMTWVRQAPGKGLEWVSVIYSGGSTFYADSVKGRFTISRDNSKNTLYLQMSSLRAEDTAVYYCARDLGPYGMDVWGQGTTVTVSS
VL: DIQLTQSPSFLSASVGDRVTITCRASQGISSDLAWYQQKPGKAPNLLIYAASTLQSGVPSRFSGSGSGTEFTLTISSLQPEDFATYYCQQLNSDLYTFGQGTKLEIK
B4: BD-629 (antibody, V domains shown)
VH: EVQLVESGGGLIQPGGSLRLSCAASEFIVSRNYMSWVRQAPGKGLEWVSVIYSGGSTYYADSVKGRFTISRDNSKNTLNLQMNSLRAEDTAVYYCARDYGDYYFDYWGQGTLVTVSS
VL: EIVLTQSPGTLSLSPGERATLSCRASQGVSSFLAWYQQKPGQAPRLLIHGASSRATGIPDRFSGSGSGTDFTLTITRLEPEDFAVYYCQQYGSSPRTFGQGTKVEIK
B5: C002 (antibody, V domains shown)
VH: EVQLVESGGGVVQPGRSLRLSCAASGFTFSIYGMHWVRQAPGKGLEWVAVISYDGSNKYYADSVKGRFTISRDNSKNTLYLQMNSLRAEDTAVYYCAKEGRPSDIVVVVAFDYWGQGTLVTVSS
VL: not shown
B6: C105 (antibody, V domains shown)
VH: QVQLVESGGGLIQPGGSLRLSCAASGFTVSSNYMSWVRQAPGKGLEWVSVIYSGGSTYYADSVKGRFTISRDNSKNTLYLQMNSLRAEDTAVYYCARGEGWELPYDYWGQGTLVTVSS
VL: QSALTQPPSGSGSPGQSVTISCTGTSSDVGGYKYVSWYQQHPGKAPKLMIYEVSKRPSGVPDRFSGSKSGNTASLTVSGLQAEDEADYYCSSYEGSNNFVVFGGGTKLTVL
B7: C110 (antibody, V domains shown)
VH: QVQLQQSGAEVKKPGESLKISCKGSGYSFTSYWIGWVRQMPGKGLEWMGIIYPGDSDTRYSPSFQGQVTISADKSISTAYMQWSSLKASDTAMYYCARSFRDDPRIAVAGPADAFDIWGQGTMVTVSS
VL: DIQMTQSPSTLSASVGDRVTITCRASQSISYWLAWYQQKPGKAPKLLIYQASSLESGVPSRFSGSESGTEFTLTISSLQPDDFATYYCQQYNSYPYTFGQGTKLEIK
B8: C119 (antibody, V domains shown)
VH: QVQLVQSGAEVKKPGASVKVSCKASGYTFTSYYMHWVRQAPGQGLEWMGIINPSGGSTSYAQKLQGRVTMTRDTSTSTVYMELSSLRSEDTAVYYCARANHETTMDTYYYYYYMDVWGKGTTVTVSS
VL: QSALTQPASVSGSPGQSITISCTGTSSDVGGYKYVSWYQRHPGKAPKLMIYDVSNRPSGVSNRFSGSKSGNTASLTISGLQAEDEADYYCSSYTSSSTSVVFGGGTQLTVL
B9: C121 (antibody, V domains shown)
VH: not shown
VL: QSALTQPASVSGSPGQSITISCTGTSSDVGSYNLVSWYQQHPGKAPKLMIYEGSKRPSGVSNRFSGSKSGNTASLTISGLQAEDEADYYCCSYAGSSTLVFGGGTKLTVL
B10: C144 (antibody, V domains shown)
VH: EVQLVESGGGLIQPGGSLRLSCAASGFTVSNNYMSWVRQAPGKGLEWVSVIYSGGSTYYADSVKGRFTISRDKSKNTLYLQMNRLRAEDTAVYYCAREGEVEGYNDFWSGYSRDRYYFDYWGQGTLVTVSS
VL: QSALTQPASVSGSPGQSITISCTGTSSDVGGYNYVSWYQQHPGKAPKLMIYDVSNRPSGVSNRFSGSKSGNTASLTISGLQAEDEADYYCSSYTSSSTRVFGTGTKVTVL
B11: CC12.1 (antibody, V domains shown)
VH: B3 VH with I27L, I28T, T35S, S83N, G100D, P101V, M104L
VL: DIVMTQSPSFLSASVGDRVTITCRASQGISSYLAWYQQKPGKAPKLLIYAASTLQSGVPSRFSGSGSGTEFTLTISSLQPEDFATYYCQQLNSYPPKFTFGPGTKVEIK
B12: CC12.3 (antibody, V domains shown)
VH: B4 VH with E1Q, E26G, I28T, R31S, Y58F, N76S, N79Y, A87V, Y99F, Y102F
VL: not shown
B13: COVA1-07 (antibody, V domains shown)
VH: QVQLVESGAEVKKPGSSVKVSCKASGGTLSSYAITWVRQAPGQGLEWVGGIIPIFGTANYAQKFQGRVTITADESTSTAYMELSSLRSEDTAVYYCARVGAYDSSGYSNDYWGQGTLVTVSS
VL: DIQLTQSPATLSLSPGERATLSCRASQSVSSYLAWYQQKPGQAPRLLIYDASNRATGIPARFSGSGSGTDFTLTISSLEPEDFAVYYCQQRSNWPPRVTFGGGTKVEIK
B14: COVA1-18 (antibody, V domains shown)
VH: B6 VH with Q1E, I12V, G98V, G100W, W101A, E102A, L103A, P104G, Y105T, D106F
VL: QSALTQEPSLTVSPGGTVTLTCGSSTGAVTSGHYPYWFQQKPGQAPRTLIYDTSNKRSWTPARFSGSLLGGKAALTLSGAQPEDEAEYYCLLSYSGVWVFGGGTKLTVL
B15: COVA2-10 (antibody, V domains shown)
VH: EVQLLESGGGLVQPGGSLKLSCAASGFTFSSYAMSWVRQAPGKGLEWVSAISGSGSNTYYADSVKGRFTISRDNSKNTLYLQMNSLRAEDTAVYYCAKGLRGQQLVIPTEYFQHWGQGTLVTVSS
VL: not shown
B16: COVA2-14 (antibody, V domains shown)
VH: B13 VH with E6Q, L29F, T35I, V48M, A72T, G100R, A101Y, S108Y, N109E
VL: B13 VL with D1E, Q3V, K39E, R97M, V98Y, G102Q
B17: COVA2-18 (antibody, V domains shown)
VH: EVQLVQSGAEVKKPGSSVKVSCKASGGTFSSYAISWVRQAPGQGLEWMGGIIPIFGTTNYAQKFQGRVTITTDESTSTAYMELSSLRSEDTAVYYCARVYSYDSSGYYLEYWGQGTRVTVSS
VL: B13 VL with D1E, Q3V, R97S, V98I, G102Q, K105R, V106L
B18: COVA2-28 (antibody, V domains shown)
VH: EVQLVESGGGVVQPGRSLRLSCAASGFTFSSYGMHWVRQAPGKGLEWVAVIWYDGSNKYYADSVKGRFTISRDNSKNTLYLQMDSLRAEDTAMYYCAKDKAPPCSSGWYYFDYWGQGTLVTVSS
VL: not shown

target: SARS-CoV-2 hexaproline stabilized pre-fusion spike glycoprotein (S6P) (SARS-CoV-2, ancestral (Wuhan-Hu-1 …, UniProt P0DTC2, stabilised))

Row | Binder | binding result
1 | B1 | binds
2 | B2 | binds
3 | B3 | binds
4 | B4 | binds
5 | B5 | binds
6 | B6 | binds
7 | B7 | binds
8 | B8 | binds
9 | B9 | binds
10 | B10 | binds
11 | B11 | binds
12 | B12 | binds
13 | B13 | binds
14 | B14 | binds
15 | B15 | binds
16 | B16 | binds
17 | B17 | binds
18 | B18 | binds
